Experimental data taken from patent US11034736B2, “Anti-viral cnidarins” (priority 2014, dated 2021).

How the values were obtained:
[1] = biological target: HIV-1IIIB gp120 (Human immunodeficiency virus type 1 group M subtype B, UniProt P04578); conditions: ELISA
Protocol: High protein binding Greiner 96-well plates (VWR, Bridgeport, N.J.) were coated with 1 pmol/well of recombinant HIV-1IIIIB gp120 (Immuno Diagnostics, Woburn, Mass.) or recombinant HIV-1HXB2 gp41 (Vybion Inc., Ithaca, N.Y.) at 4° C. overnight. The wells were emptied and then blocked with 200 μl/well of 3% non-fat dry milk (Bio-Rad, Hercules, Calif.) blocking solution for 2 hrs. A control plate was incubated with blocking solution only. After washing three times with PBST, 0.5-log10 serial dilutions of rCNID-1-Trx were added to triplicate wells of gp120−, gp41− and the blocking solution control plate, and the plates were incubated for 2 hrs. The plates were washed with PBST and 100 W/well of a 1:250 dilution of polyclonal rabbit anti-CNID-1 antibody was added and allowed to incubate for 1 hr, followed by three washes with PBST. Goat anti-rabbit (H+L), peroxidase conjugated secondary antibody (Thermo Fisher Scientific Inc., Rockford, Ill.) was added to each well (100 μl/well of a 1:1000 dilution) and further incubated for 1 hr, followed by three washes with PBST. The TMB 2-component Microwell peroxidase substrate kit (KPL Inc., Gaithersburg, Md.) was used for peroxidase detection: 100 W/well, incubation for 5-10 min and the reaction was stopped by addition of 0.5M HCl (100 W/well) before reading the absorbance at 450 nm.
Briefly, 100 ng/wells of glycosylated recombinant HIV-1IIIB gp120 (Immuno Diagnostics, Woburn, Mass.) or nonglycosylated HIV-1 gp120 (MyBioSource LLC, San Diego, Calif.) was added to the wells of two 96-well plates, and incubated overnight at 4° C. The plates were washed and blocked as previously described. Serial dilutions of rCNID-1-Trx were added (100 W/well); incubation done for 2 hrs. The plates were then washed and visualized using anti-CNID-1 polyclonal antibodies as above.

[2] = tested on: PBMC; test: Cell viability of PBMC cultures (CellTiter formazan dye reduction); assay type: cell-based, human
From the text: To test the anti-HIV activity of CNID1 against HIV primary isolates in fresh human cells, monocyte-tropic HIV-1 strain Ba-L was obtained from the NIAID AIDS Research and Reference Reagent Program (National Institutes of Health, Bethesda, Md.). The low passage HIV-1 pediatric isolate ROJO was derived as described previously (Buckheit et al., AIDS Res. Hum. Retroviruses, 10: 1497-1506 (1994)). Human peripheral blood mononuclear cells (PBMCs) and macrophages were isolated from hepatitis and HIV seronegative donors following Ficoll-Paque centrifugation as described elsewhere (Gartner & Popovic, Techniques in HIV Research, Aldovini, A. and Walker B., eds., pp. 59-63, Stockton Press, New York, 1990). Antiviral assays were carried out with 3-day-old phytohaemagglutinin/interleukin-2 stimulated PBMCs or 6-day-cultured monocyte/macrophages. […] HIV-1 replication in PBMC (ROJO) or monocyte macrophage (Ba-L) cultures were determined by measurement of reverse transcriptase activity (Buckheit et al., Antiviral Res., 21: 247-265 (1993)) in the supernatants or p24 antigen expression by ELISA (Coulter, Hialeah, Fla.), respectively. Cell viability by formazan dye reduction was determined in replicated cultures using the CellTiter reagent (Promega, Madison, Wis.). […]

B1: CNID-1: HIV-inhibitory protein from soft coral Synthecium sp.; 172 amino acids, 18,122 Da, SEQ ID NO: 1 (protein)
chain: GRATLGQLKTSTIPPVTFDVPFDGANIPQDVRFTIATVNGGKGALYNAELGESAGHTIVLESDGDHPIPGTFDPKSGRGLDYLPRGLVLFSSHNYVGNMKMYTEPDSDITADFPPGTPFGVSSAITGEGSAFQLNTGIDHTGEFEIIPPNTKRNLAGVFDNEIRSVSPTGGK
Binding to glycosylated versus non-glycosylated gp120 ([1]; 100 ng/well): bound better to glycosylated gp120 as compared to non-glycosylated gp120 | Binding to gp120 ([1]; 100 ng/well gp120): specific binding to viral glycoprotein gp120 in a concentration-dependent manner | CC50 [2]: 144 nM
